{
  "source": "paper PMC10501992",
  "about": "“How Pol α-primase is targeted to replisomes to prime eukaryotic DNA replication” (Molecular Cell, 2023)",
  "conditions_in_all_cases": "both partners purified",
  "key": {"[1]": {"biological_target": "T1, Mrc1 (budding yeast) (S. cerevisiae, UniProt P25588 1-1096)", "T1 construct": "Mrc1, S. cerevisiae; several small sections modelled (S339-K323 as printed, D468-Q483, N842-E858); source: S. cerevisiae strain yJY32, expressed and purified as described previously", "T1 sequence": "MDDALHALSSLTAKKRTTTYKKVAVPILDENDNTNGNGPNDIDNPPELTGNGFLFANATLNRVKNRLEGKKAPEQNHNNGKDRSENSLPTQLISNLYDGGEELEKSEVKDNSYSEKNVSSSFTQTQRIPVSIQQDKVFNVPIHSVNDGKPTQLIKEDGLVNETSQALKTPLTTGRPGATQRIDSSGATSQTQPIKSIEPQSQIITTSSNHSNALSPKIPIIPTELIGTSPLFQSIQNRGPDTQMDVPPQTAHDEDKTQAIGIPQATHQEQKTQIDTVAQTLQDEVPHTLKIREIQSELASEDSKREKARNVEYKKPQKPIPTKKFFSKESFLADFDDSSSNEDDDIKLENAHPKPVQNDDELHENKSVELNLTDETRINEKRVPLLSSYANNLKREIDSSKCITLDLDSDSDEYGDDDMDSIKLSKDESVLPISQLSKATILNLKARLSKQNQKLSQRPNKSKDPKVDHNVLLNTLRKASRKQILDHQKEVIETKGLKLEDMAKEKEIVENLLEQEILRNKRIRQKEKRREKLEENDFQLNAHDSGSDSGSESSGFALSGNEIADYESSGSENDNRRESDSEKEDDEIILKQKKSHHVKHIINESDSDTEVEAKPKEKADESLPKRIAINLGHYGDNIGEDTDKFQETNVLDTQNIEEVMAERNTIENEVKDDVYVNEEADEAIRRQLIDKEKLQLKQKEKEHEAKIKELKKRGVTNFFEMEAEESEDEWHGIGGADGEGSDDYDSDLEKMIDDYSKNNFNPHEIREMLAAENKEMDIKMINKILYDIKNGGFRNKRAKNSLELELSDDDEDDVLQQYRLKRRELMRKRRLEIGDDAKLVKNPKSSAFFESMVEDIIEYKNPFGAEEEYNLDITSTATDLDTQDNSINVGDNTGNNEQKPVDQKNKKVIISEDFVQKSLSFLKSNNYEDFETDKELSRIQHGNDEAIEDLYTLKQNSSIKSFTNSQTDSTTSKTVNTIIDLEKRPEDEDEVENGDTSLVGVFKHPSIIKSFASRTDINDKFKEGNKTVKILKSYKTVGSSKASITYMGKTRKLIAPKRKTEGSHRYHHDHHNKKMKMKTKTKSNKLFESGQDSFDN", "assay": "cryo-EM structure; budding yeast replisome: 150 nM CMG on fork DNA (39 nt 3′ flap, 60 nt 5′ flap) with 1.5-fold molar excess of Tof1-Csm3, Mrc1 and Pol α-primase; 25 mM HEPES-NaOH pH 7.6, 150 mM NaOAc, 0.5 mM TCEP, 500 μM AMP-PNP, 10 mM Mg(OAc)2, on ice; 10-30% glycerol gradient with glutaraldehyde and BS3 cross-linkers"}, "[2]": {"biological_target": "T2, PRIM2 (human primase accessory subunit) (human, UniProt P49643 1-509)", "T2 construct": "PRIM2, human; modelled residues 1-5 (N terminus) and 17-252 (NTD); stood in the assay as a subunit of m18; also called PRIM2NTD; PRIM2_(Nterm)", "T2 sequence": "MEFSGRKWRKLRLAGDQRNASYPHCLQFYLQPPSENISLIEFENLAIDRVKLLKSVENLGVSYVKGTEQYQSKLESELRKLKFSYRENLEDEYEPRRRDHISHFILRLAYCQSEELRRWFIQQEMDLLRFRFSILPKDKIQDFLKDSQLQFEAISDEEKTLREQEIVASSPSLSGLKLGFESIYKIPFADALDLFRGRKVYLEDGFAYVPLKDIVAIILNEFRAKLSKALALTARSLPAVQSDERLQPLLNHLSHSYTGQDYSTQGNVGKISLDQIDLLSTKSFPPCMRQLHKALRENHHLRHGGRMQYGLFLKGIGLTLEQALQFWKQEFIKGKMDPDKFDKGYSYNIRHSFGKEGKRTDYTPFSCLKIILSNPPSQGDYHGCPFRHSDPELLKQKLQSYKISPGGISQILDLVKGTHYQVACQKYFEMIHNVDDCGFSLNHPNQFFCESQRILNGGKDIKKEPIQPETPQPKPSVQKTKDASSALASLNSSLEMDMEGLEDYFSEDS", "assay": "cryo-EM structure; human replisome: 150 nM CMG on fork DNA (60 nt or 15 nt 5′ flap) with 1.5-fold molar excess of AND-1, TIMELESS-TIPIN, CLASPIN and Pol α-primase; 25 mM HEPES-NaOH pH 7.6, 150 mM NaOAc, 0.5 mM TCEP, 500 μM AMP-PNP, 10 mM Mg(OAc)2, on ice; 10-30% glycerol gradient with glutaraldehyde and BS3 cross-linkers"}, "[3]": {"biological_target": "T3, budding yeast CMG (Cdc45-Mcm2-7-GINS) replicative helicase (S. cerevisiae, UniProt Q08032 1-650; P29469 1-868; P24279 1-971; P30665 1-933; P29496 1-775; P53091 …)", "T3 construct": "Cdc45, S. cerevisiae; Mcm2, S. cerevisiae; Mcm3, S. cerevisiae; Mcm4, S. cerevisiae (named only within Mcm2-7); Mcm5, S. cerevisiae; Mcm6, S. cerevisiae (named only within Mcm2-7); Mcm7, S. cerevisiae (named only within Mcm2-7); Psf1, subunit of GINS, S. cerevisiae; Psf2, subunit of GINS, S. cerevisiae; Sld5, subunit of GINS, S. cerevisiae; source: S. cerevisiae strain yJY197, expressed and …", "assay": "cryo-EM structure; budding yeast replisome: 150 nM CMG on fork DNA (39 nt 3′ flap, 60 nt 5′ flap) with 1.5-fold molar excess of Tof1-Csm3, Mrc1 and Pol α-primase; 25 mM HEPES-NaOH pH 7.6, 150 mM NaOAc, 0.5 mM TCEP, 500 μM AMP-PNP, 10 mM Mg(OAc)2, on ice; 10-30% glycerol gradient with glutaraldehyde and BS3 cross-linkers"}},
  "data": [
    {"binder": "Cdc45 (budding yeast) (natural protein, S. cerevisiae, UniProt Q08032 1-650, looked up, Cdc45, S. cerevisiae; stood in the assay as a subunit of m2; source: subunit of CMG from S. cerevisiae strain yJY197, purified as described previously) MYYGISQFSEAYNKILRNSSSHSSCQLVIFVSCLNIDALCATKMLSLLFKKQLVQSQIVPIFGYSELRRHYSQLDDNINSLLLVGFGGVIDLEAFLEIDPQEYVIDTDEKSGEQSFRRDIYVLDAHRPWNLDNIFGSQIIQCFDDGTVDDTLGEQKEAYYKLLELDEESGDDELSGDENDNNGGDDEATDADEVTDEDEEDEDETISNKRGNSSIGPNDLSKRKQRKKQIHEYEGVLEEYYSQGTTVVNSISAQIYSLLSAIGETNLSNLWLNILGTTSLDIAYAQVYNRLYPLLQDEVKRLTPSSRNSVKTPDTLTLNIQPDYYLFLLRHSSLYDSFYYSNYVNAKLSLWNENGKKRLHKMFARMGIPLSTAQETWLYMDHSIKRELGIIFDKNLDRYGLQDIIRDGFVRTLGYRGSISASEFVEALTALLEVGNSTDKDSVKINNDNNDDTDGEEEEDNSAQKLTNLRKRWVSNFWLSWDALDDRKVELLNRGIQLAQDLQRAIFNTGVAILEKKLIKHLRIYRLCVLQDGPDLDLYRNPLTLLRLGNWLIECCAESEDKQLLPMVLASIDENTDTYLVAGLTPRYPRGLDTIHTKKPILNNFSMAFQQITAETDAKVRIDNFESSIIEIRREDLSPFLEKLTLSGLL", "values": [
      {"measurement": "binding result", "setting": "[1]", "result": "binds"}
    ]},
    {"binder": "PSF2 (human GINS subunit) (natural protein, PSF2, subunit of GINS, human; stood in the assay as a subunit of m19) MDAAEVEFLAEKELVTIIPNFSLDKIYLIGGDLGPFNPGLPVEVPLWLAINLKQRQKCRLLPPEWMDVEKLEKMRDHERKEETFTPMPSPYYMELTKLLLNHASDNIPKADEIRTLVKDMWDTRIAKLRVSADSFVRQQEAHAKLDNLTLMEINTSGTFLTQALNHMYKLRTNLQPLESTQSQDF", "values": [
      {"measurement": "binding result", "setting": "[2]", "result": "binds"}
    ]},
    {"binder": "Mcm2 (budding yeast) (natural protein, S. cerevisiae, Mcm2, S. cerevisiae; stood in the assay as a subunit of m2; source: subunit of CMG from S. cerevisiae strain yJY197, purified as described previously) MSDNRRRRREEDDSDSENELPPSSPQQHFRGGMNPVSSPIGSPDMINPEGDDNEVDDVPDIDEVEEQMNEVDLMDDNMYEDYAADHNRDRYDPDQVDDREQQELSLSERRRIDAQLNERDRLLRNVAYIDDEDEEQEGAAQLDEMGLPVQRRRRRRQYEDLENSDDDLLSDMDIDPLREELTLESLSNVKANSYSEWITQPNVSRTIARELKSFLLEYTDETGRSVYGARIRTLGEMNSESLEVNYRHLAESKAILALFLAKCPEEMLKIFDLVAMEATELHYPDYARIHSEIHVRISDFPTIYSLRELRESNLSSLVRVTGVVTRRTGVFPQLKYVKFNCLKCGSILGPFFQDSNEEIRISFCTNCKSKGPFRVNGEKTVYRNYQRVTLQEAPGTVPPGRLPRHREVILLADLVDVSKPGEEVEVTGIYKNNYDGNLNAKNGFPVFATIIEANSIKRREGNTANEGEEGLDVFSWTEEEEREFRKISRDRGIIDKIISSMAPSIYGHRDIKTAVACSLFGGVPKNVNGKHSIRGDINVLLLGDPGTAKSQILKYVEKTAHRAVFATGQGASAVGLTASVRKDPITKEWTLEGGALVLADKGVCLIDEFDKMNDQDRTSIHEAMEQQSISISKAGIVTTLQARCSIIAAANPNGGRYNSTLPLAQNVSLTEPILSRFDILCVVRDLVDEEADERLATFVVDSHVRSHPENDEDREGEELKNNGESAIEQGEDEINEQLNARQRRLQRQRKKEEEISPIPQELLMKYIHYARTKIYPKLHQMDMDKVSRVYADLRRESISTGSFPITVRHLESILRIAESFAKMRLSEFVSSYDLDRAIKVVVDSFVDAQKVSVRRQLRRSFAIYTLGH", "values": [
      {"measurement": "binding result", "setting": "[1]", "result": "binds"}
    ]},
    {"binder": "Tof1-Csm3 (budding yeast) (complex, S. cerevisiae, Tof1, S. cerevisiae; Csm3, S. cerevisiae; source: S. cerevisiae strain yAE48, expressed and purified as described previously) chain 1: MSADLQQGTTNAADFSLTVLRARIALLATAIGGPDYTSQIDPPPYKLGDDCLACLKDLKRWFKLVDDQQKRWDVAMAVAEYRILTDDLLPILIDWENKCSLAAKLAKNNPDHEEFRNKAYYDKIALNCLQLLVLMTWPLIVTEQSSSNQITLYGELKKHQLVYKKTILSMESGKVLRAAIRLALDVIKIDRLSRTPRDNMVLKLVLNFFRNVIAIEPGEFTINTKKSMPKKGITSIDTLPPNVSMDDISLNTVISSFHKNKVFGFLLTLTSSLSKEFDQDFINIPLLEIMFYFTKDVNQELLFPRQFETGTHSKVVNKNESSSANNIVTSAGFELSKLLQKEHQMRKNVIKHTSARHSRFGGLLSIQTPDKTRLTVSGSQALVDEKIALQKLDDSKKWNKRIIKKHQSVAAEGLPNSLLNSQTGKAIFFTESNGKHFKEFINNFIDSGFNILLHSVTNYFTTEQDRMVTLEQVEYLLFFAWFVKYQLLRSKIDNSADIKQVSEALKEVTFILVSSLLRSAYDLKNWTVTHAGMIAFNELLNLVSRTKAAQEEDSTDIEFIVSRLFSDERIQLLSNLPKIGSKYSLQFMKSCIELTHSVLKVLEQYSDDKTLVIEGKSRRQKKFNISEGDITKLIEEENVDRDEALDILTSSLRSIEVNFQKVQANYMTEPVIETYINFLERFRELEDDSIKKVFSFFHRVFVQAKEQALLFRFDLIILLREMLSPDGLDRMSRSRKYVSQFSDYFLARLKKRLKKSPAWFVGLLFPPLHNSEVGFYQRYGEYNVLNNESMYAAPASQFKPIPDEEALPPSILLDMKYGVLVSTLLDDGKTELLDQLLKHITHTLDIFKSWLTVNVNAGKETVNPPNEYFTLTGVLNNDPIFKDKDYRALLLLIGYSIPRKINEPCFLPGTVEVSDLTVSCELVKKYLSTPFETPNGLPSSSYLLRVRSEKDSFSHNEQDGWEGDDDYDYNDPYIVPDDQILSKSDAAYFKDLDNNASDKLKGTKFSKGIARSKKKDKRKRRKGEAKTNLPMFGDQDDERPQTVRERHGVFSKEFISDSEDDEDLMNPIFFENETYMRWLLDKNNGQLTEDRYIQFAKFAAERMNNGGVVTGDYTSLFGGSIPSIESIRATESSSFAPDKSLISLASHVASEMSIFDVNNNNNNQLSDDDVNSESRNSLGSSQPSNSQNMFQSEVYSRKESTKRSLEASAADESDEDEEAIRLFGKKSRVVLSQGDSDD chain 2: MDQDFDSLLLGFNDSDSVQKDPTVPNGLDGSVVDPTIADPTAITARKRRPQVKLTAEKLLSDKGLPYVLKNAHKRIRISSKKNSYDNLSNIIQFYQLWAHELFPKAKFKDFMKICQTVGKTDPVLREYRVSLFRDEMGMSFDVGTRETGQDLERQSPMVEEHVTSAEERPIVADSFAQDKRNVNNVDYDNDEDDDIYHLSYRNRRGRVLDERGNNETVLNNVVPPKEDLDALLKTFRVQGPVGLEENEKKLLLGWLDAHRKMEKGSMTEEDVQLIQSLEEWEMNDIEGQHTHYDLLPGGDEFGVDQDELDAMKEMGF", "values": [
      {"measurement": "binding result", "setting": "[3]", "result": "binds"}
    ]}
  ]
}
